# Experimental data from article PMC10821409, “The transport activity of the multidrug ABC transporter BmrA does not require a wide separation of the nucleotide-binding domains” (The Journal of Biological Chemistry, 2023).
# B1: BmrA WT, homodimeric multidrug ABC transporter from Bacillus subtilis (natural protein)
# chain: MPTKKQKSKSKLKPFFALVRRTNPSYGKLAFALALSVVTTLVSLLIPLLTKQLVDGFSMSNLSGTQIGLIALVFFVQAGLSAYATYALNYNGQKIISGLRELLWKKLIKLPVSYFDTNASGETVSRVTNDTMVVKELITTHISGFITGIISVIGSLTILFIMNWKLTLLVLVVVPLAALILVPIGRKMFSISRETQDETARFTGLLNQILPEIRLVKASNAEDVEYGRGKMGISSLFKLGVREAKVQSLVGPLISLVLMAALVAVIGYGGMQVSSGELTAGALVAFILYLFQIIMPMGQITTFFTQLQKSIGATERMIEILAEEEEDTVTGKQIENAHLPIQLDRVSFGYKPDQLILKEVSAVIEAGKVTAIVGPSGGGKTTLFKLLERFYSPTAGTIRLGDEPVDTYSLESWREHIGYVSQESPLMSGTIRENICYGLERDVTDAEIEKAAEMAYALNFIKELPNQFDTEVGERGIMLSGGQRQRIAIARALLRNPSILMLDEATSSLDSQSEKSVQQALEVLMEGRTTIVIAHRLSTVVDADQLLFVEKGEITGRGTHHELMASHGLYRDFAEQQLKMNADLENKAG
# notes: BmrA, multidrug ABC transporter, Bacillus subtilis; hexa histidine-tagged pET23 BmrA; Residues 578 onward could not be modelled in PDB 8QOE; also called WT BmrA; WT protein; source: E. coli C41(DE3), purified in DDM/cholate (Ni-NTA)
# Target: the molecule itself
# Assay: cryo-EM structure; detergent-purified protein (DDM/cholate), apo, inward-facing state; C2 symmetry
protein,measurement,value
B1,binding result,binds
